Results reported in article PMC11154593, “New insights into the domain of unknown function (DUF) of EccC5, the pivotal ATPase providing the secretion driving force to the ESX-5 secretion system” (Acta Crystallographica. Section D, Structural Biology, 2024).
Where “and” joins values, the source holds several entries; their conditions need not be identical. Equal values may be shown once.

Target: the molecule itself
Experiment: SEC; […] (16/60) […]; 20 mM Tris-HCl pH 7.5, 150 mM NaCl ([…]) or 20 mM HEPES pH 7.5, 150 mM NaCl, 5 mM MgCl2 ([…]; 4°C

B1: DUF domain of EccC5 from M. tuberculosis (crystallographic construct, residues 1-417 with 17-118 rep (domain or fragment)
chain: MKRGFARPTPEKPPVIGSSGQESADSMDANYRWFHPAPNTLAAAVGSPRMWERKPDGKDLNFGVVRVGGSGFGRYQSVVYNLPKMVSLLVEPWYALVGEREQVLGLMRAIICQLAFSHGPDHVQMIVVSSDLDQWDWVKWLPHFGDSRRHDAAGNARMVYTSVREFAAEQAELFAGRGSFTPRHASSSAQTPTPHTVIIADVDDPQWEYVISAEGVDGVTFFDLTGSSMWTDIPERKLQFDKTGVIEALPRDRDTWMVIDDKAWFFALTDQVSIAEAEEFAQKLAQWRLA
notes: EccC5, M. tuberculosis, UniProt P9WNA5, residues 1-16 (before the removed transmembrane region); linker replacing residues 17-118; EccC5, M. tuberculosis, UniProt P9WNA5, residues 119-166; linker replacing residues 167-198; EccC5, M. tuberculosis, UniProt P9WNA5, residues 199-417; also called MtbEccC5 DUF; EccC5 DUF; not shown: His6, N-terminal, cleaved; SUMO, N-terminal, cleaved
- stoichiometry N: 3 and 6
